# Experimental data as given in patent US20100210478A1, “MAKE AND USE OF SURFACE MOLECULES OF VARIED DENSITIES” (priority 2006, published 2010).
# What was measured:
# peptide YEE = tested on: T1, peptide YEE
# T1 sequence: YEE
# peptide YEEI = tested on: T2, peptide YEEI
# T2 sequence: YEEI
# peptide YEEIP = tested on: T3, peptide YEEIP
# T3 sequence: YEEIP
# peptide YVPM = tested on: T4, peptide YVPM
# T4 sequence: YVPM
# Src kinase, p60c-src = molecular target: T5, Src kinase, p60c-src (Homo sapiens, UniProt P12931); assay: protein kinase reaction on peptide chip, phosphorylation detected by cy3-Pro-Q staining; assay type: biochemical; conditions: pH7.5, 0.07 mM ATP, 25° C. for 30 min
# T5 construct: purchased Invitrogen
# From the text: FIG. 8 is a fluorescence image of a protein kinase reaction on pY-phosphopeptide chip. The experiment used Src kinase, p60c-src (Invitrogen). The chip included 23 known kinase substrates and their sequence variants, which vary in length and composition, a number of position and negative control sequences, and a few artificial peptide sequences. For each substrate peptide, at the phosphorylation position, Tyr (Y) in YEEI, for instance, three sequences are present, which are YEEI, pYEEI and AEEI. pY-containing sequences are directly synthesized which are reference sequences for the Y-containing sequences (as the substrate for kinase reactions) There are also background sites which contain no peptides. 8-22 redundancies were present. The peptide sequences shown in the image are YVPM (column 1) and the YEEIP (column 2) related sequences in double replicates. These sequences are given on right of the image. […] Kinase reaction conditions and phosphorylation detection were: 10× enzyme storage solution (0.5 mg/ml). 50 ul reaction buffer, pH7.5 (50 HEPES, 0.1 mM EDTA, and 0.01% Brij 35, 0.1 mg/ml BSA, 0.1% beta-mercaptoethanol, 0.07 mM ATP, 10 mM MgCl2), 25° C. for 30 min. The array was stained by filling the array with 200 ul cy3-Pro-Q solution (phosphate staining reagent), standing at room temperature for 20 min. The chip was then washed with 2 ml destaining buffer, pH 4.0 (50 mM […], 20% acetonitrile) as recommended by the vendor. The image was obtained from a regular microarray scanner (Axon GenPix 4000B) and shown using inverted intensities after background subtraction.
# The signal intensities were analyzed using the following equation:
# Relative phosphorylation efficiency: fP =(IY−IA)/(IpY−IA)
# For a peptide, I is the signal intensity, IY is for Y-containing sequence which undergoes phosphorylation by kinase,IpY is for the synthetic phosphopeptide, IA is for the sequence containing Y→A substitution. By using the positive controls (pY-sequence) and negative controls (A-sequence or other non-phosphorylation amino acids) to derive relative phosphorylation efficiency, fp as fraction or percentage, the kinase reaction results were analyzed quantitatively. The method takes the advantage of addressable peptide array for reducing false positive readout and improves reliability of the data analysis.
substance,measurement,setting,value
"Src kinase, p60c-src (Invitrogen)","phosphorylation on peptide chip, cy3-Pro-Q phosphate staining",peptide YEE,YEE and YEEI are phosphorylated by the Sic kinase used
same,"phosphorylation on peptide chip, cy3-Pro-Q phosphate staining",peptide YEEI,YEE and YEEI are phosphorylated by the Sic kinase used
same,"phosphorylation on peptide chip, cy3-Pro-Q phosphate staining",peptide YEEIP,YEEIP is a substrate of lower reactivity
same,"phosphorylation on peptide chip, cy3-Pro-Q phosphate staining",peptide YVPM,YVPM has the lowest reactivity
YEE,phosphorylation by Src kinase (substrate reactivity),"Src kinase, p60c-src",phosphorylated
YVPM,phosphorylation by Src kinase (substrate reactivity),"Src kinase, p60c-src",lowest reactivity
YEEI,phosphorylation by Src kinase (substrate reactivity),"Src kinase, p60c-src",phosphorylated
YEEIP,phosphorylation by Src kinase (substrate reactivity),"Src kinase, p60c-src",substrate of lower reactivity
